Target: T1, YU2 gp120 (HIV-1, UniProt P35961 32-498)
T1 construct: domain: gp120
Assay: ELISA

B1: VRC-PG-05 (antibody, V domains shown)
VH: EVQLVESGGGLVQPGGSLRLSCAASGFPFNRDWMTWVRQAPGKGLEWVANINMDGDKKDYVDSVKGRFTISRDNAKTSLYLQMNSLRAGDTAVYYCARIRQVSKYLQWYPGVFEMWGQGTMVTVSS
VL: DIVMTQSPDSLAVSLGERATIHCKSSQSVLYRPNNRNYVAWYQQKPGQPPRLLIHWASFRESGVPDRFTGSGSGTDFTLTISSLQAEDVAVYYCQQYFFLYSFGGGTKLEIN
- binding result: binds

Source: US20160289305A1 (INTERNATIONAL AIDS VACCINE INITIATIVE, published 2016)
